Measurements: patent US20220363757A1 (SYMPHOGEN A S, published 2022)
Substitutions are numbered along the chain they refer to.

B1: Fab fragment of antibody 15532 (Fab, V domains shown, not shown: a dimerising Fc or GST)
VH: QVQLQQWGAGLLRPSETLSLTCAVYGESFSGYYWNWIRQPPGKGLEWIGEINHSGSTNYNPSLKSRVTISVDTSKTQFSLKLSSVTAADTAVYYCARGWDLLDWNDYWNEYWGQGTLVTVSS
VL: EIVLTQSPATLSLSPGERATLSCRASQSVSSYLAWYQQKPGQAPRLLIYDASNRATGIPARFSGSGSGTDFTLTISSLEPEDFAVYYCQQRSNWPLTFGGGTKVEIKR
notes: monomeric Fab made by GingisKHAN digestion of the IgG1
B2: Fab fragment of antibody 15011 (Fab, V domains shown, not shown: a dimerising Fc or GST)
VH: EVQLLESGGGLVQPGGSLRLSCAASGFDFRSYAMMWVRQAPGKGLEWVGGINGEVGGSNTYYAPAVKGRATISRDNSKNTLYLQMNSLRAEDTAVYYCVKGAGACGICNDDIDAWGQGTLVTVSS
VL: SYELTQDPAVSVALGQTVRITCSGAGSYAGSYYYGWHQQKPGQAPVTVIYDNDKRPSNIPDRFSGSSSGNTASLTITGAQAEDEADYYCGSTNDNDDGGLFGSGTKVTVLG
notes: as for B1
B3: Fab fragment of antibody 15431 (Fab, V domains shown, not shown: a dimerising Fc or GST)
VH: QVQLQQSGPGLVKPSQTLSLTCAISGDSVSSNSAAWNWIRQSPSRGLEWLGRTYYRSKWYNDYAVSVKSRITINPDTSKNQFSLQLNSVTPEDTAVYYCARDDDWNDFDYWGQGTLVTVSS
VL: B1 VL
notes: as for B1
B4: Fab fragment of antibody 15572 (Fab, V domains shown, not shown: a dimerising Fc or GST)
VH: QLQLQESGPGLVKPSETLSLTCTVSGDSISSSSYYWGWIRQPPGKGLEWIGSIFYSGNTYYNPSLKSRVTISVDTSKNQFSLKLSSVTAADTAVYYCAREDDFLTDYYGAFDIWGQGTMVTVSS
VL: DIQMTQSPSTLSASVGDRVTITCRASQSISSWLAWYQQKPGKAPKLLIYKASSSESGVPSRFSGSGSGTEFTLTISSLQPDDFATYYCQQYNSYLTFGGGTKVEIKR
notes: as for B1

Legend:
[1] = target: T1, human LAG-3 ECD human IgG1 Fc fusion (human, UniProt P18627 23-450); test: SPR, Fab over captured LAG-3 ECD-Fc
T1 construct: not shown: human IgG1 Fc, AA P101-K330
T1 sequence: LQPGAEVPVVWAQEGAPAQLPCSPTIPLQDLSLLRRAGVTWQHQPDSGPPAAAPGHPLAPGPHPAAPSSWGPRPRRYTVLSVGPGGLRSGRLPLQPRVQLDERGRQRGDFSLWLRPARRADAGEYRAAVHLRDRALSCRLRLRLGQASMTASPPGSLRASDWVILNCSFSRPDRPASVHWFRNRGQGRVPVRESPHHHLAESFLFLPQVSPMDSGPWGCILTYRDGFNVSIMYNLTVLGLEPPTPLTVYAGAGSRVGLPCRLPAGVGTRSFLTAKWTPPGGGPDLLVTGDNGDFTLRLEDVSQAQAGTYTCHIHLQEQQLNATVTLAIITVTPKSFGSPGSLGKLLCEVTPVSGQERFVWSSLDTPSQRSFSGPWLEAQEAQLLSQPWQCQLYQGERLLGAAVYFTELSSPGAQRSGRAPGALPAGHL

[2] = target: T2, human LAG-3 domain 1-2 Fc fusion, point mutation #16 H65A (human, UniProt P18627 23-266); test: SPR, Fab over captured mutant LAG-3-Fc;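 further: fc fusion variants captured on anti-human IgG Fc sensor, Fab injected with association then dissociation phases, KD obtained from Langmuir one-to-one fit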
T2 construct: not shown: human IgG1 Fc, AA P101-K330
T2 sequence: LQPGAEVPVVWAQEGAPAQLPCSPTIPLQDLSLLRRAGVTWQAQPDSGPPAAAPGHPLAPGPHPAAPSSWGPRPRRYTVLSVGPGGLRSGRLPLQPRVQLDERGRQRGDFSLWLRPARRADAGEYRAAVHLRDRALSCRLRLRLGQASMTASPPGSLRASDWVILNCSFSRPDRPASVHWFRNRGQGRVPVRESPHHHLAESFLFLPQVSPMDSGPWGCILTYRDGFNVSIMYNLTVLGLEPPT

[3] = target: T3, human LAG-3 domain 1-2 Fc fusion, point mutation #35 A88S (human, UniProt P18627 23-266); test: SPR, Fab over captured mutant LAG-3-Fc;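 further: fc fusion variants captured on anti-human IgG Fc sensor, Fab injected with association then dissociation phases, KD obtained from Langmuir one-to-one fit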
T3 construct: not shown: human IgG1 Fc, AA P101-K330
T3 sequence: T2 sequence with A43H, A66S

[4] = target: T4, human LAG-3 domain 1-2 Fc fusion, point mutation #23 P76A (human, UniProt P18627 23-266); test: SPR, Fab over captured mutant LAG-3-Fc;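 further: fc fusion variants captured on anti-human IgG Fc sensor, Fab injected with association then dissociation phases, KD obtained from Langmuir one-to-one fit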
T4 construct: not shown: human IgG1 Fc, AA P101-K330
T4 sequence: T2 sequence with A43H, P54A

[5] = target: T5, human LAG-3 domain 1-2 Fc fusion, point mutation #80 R163A (human, UniProt P18627 23-266); test: SPR, Fab over captured mutant LAG-3-Fc;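 further: fc fusion variants captured on anti-human IgG Fc sensor, Fab injected with association then dissociation phases, KD obtained from Langmuir one-to-one fit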
T5 construct: not shown: human IgG1 Fc, AA P101-K330
T5 sequence: T2 sequence with A43H, R141A

[6] = target: T6, human LAG-3 domain 1-2 Fc fusion, point mutation #38 S91A (human, UniProt P18627 23-266); test: SPR, Fab over captured mutant LAG-3-Fc
T6 construct: not shown: human IgG1 Fc, AA P101-K330
T6 sequence: T2 sequence with A43H, S69A

[7] = target: T7, human LAG-3 domain 1-2 Fc fusion, point mutation #65 R125A (human, UniProt P18627 23-266); test: SPR, Fab over captured mutant LAG-3-Fc
T7 construct: not shown: human IgG1 Fc, AA P101-K330
T7 sequence: T2 sequence with A43H, R103A

[8] = target: T8, human LAG-3 domain 1-2 Fc fusion, point mutation #49 G105A (human, UniProt P18627 23-266); test: SPR, Fab over captured mutant LAG-3-Fc
T8 construct: not shown: human IgG1 Fc, AA P101-K330
T8 sequence: T2 sequence with A43H, G83A

Row | Binder | Kd [1] | koff [1] | kon [1] | KD mutant/KD wild type [2] | KD mutant/KD wild type [3] | KD mutant/KD wild type [4] | KD mutant/KD wild type [5] | KD mutant/KD wild type [6] | KD mutant/KD wild type [7] | KD mutant/KD wild type [8] | binding result [2] | binding result [5]
1 | B1 | 5.8 nM | 0.00065 s⁻¹ | 110000 M⁻¹ s⁻¹ | 3.8 fold | 3.7 fold | 1 fold | 2.5 fold | 5.3 fold | 0.9 fold | 1.1 fold | – | –
2 | B2 | 4.3 nM | 0.00048 s⁻¹ | 110000 M⁻¹ s⁻¹ | 0.5 fold | 0.9 fold | 0.8 fold | 0.6 fold | 0.8 fold | 1.1 fold | 1.6 fold | – | –
3 | B3 | 30 nM | 0.002 s⁻¹ | 66000 M⁻¹ s⁻¹ | – | 0.6 fold | 0.7 fold | – | 0.7 fold | 1.1 fold | 0.4 fold | no binding (tested: 300 nM) | no binding (tested: 300 nM)
4 | B4 | 27 nM | 0.003 s⁻¹ | 110000 M⁻¹ s⁻¹ | – | 0.6 fold | 0.6 fold | – | 0.7 fold | 1.1 fold | 0.4 fold | no binding (tested: 300 nM) | no binding (tested: 300 nM)
